This assay concerns the target T1, N-terminal FLAG-tagged human ROBO4 extracellular region/domain deletion variant hROBO4-210 (human, UniProt Q8WZ75 210-1007).
T1 construct: On transfected HEK293 cells; also called pCI-FLAG-hROBO4-210; pCI-hROBO4-210
T1 sequence: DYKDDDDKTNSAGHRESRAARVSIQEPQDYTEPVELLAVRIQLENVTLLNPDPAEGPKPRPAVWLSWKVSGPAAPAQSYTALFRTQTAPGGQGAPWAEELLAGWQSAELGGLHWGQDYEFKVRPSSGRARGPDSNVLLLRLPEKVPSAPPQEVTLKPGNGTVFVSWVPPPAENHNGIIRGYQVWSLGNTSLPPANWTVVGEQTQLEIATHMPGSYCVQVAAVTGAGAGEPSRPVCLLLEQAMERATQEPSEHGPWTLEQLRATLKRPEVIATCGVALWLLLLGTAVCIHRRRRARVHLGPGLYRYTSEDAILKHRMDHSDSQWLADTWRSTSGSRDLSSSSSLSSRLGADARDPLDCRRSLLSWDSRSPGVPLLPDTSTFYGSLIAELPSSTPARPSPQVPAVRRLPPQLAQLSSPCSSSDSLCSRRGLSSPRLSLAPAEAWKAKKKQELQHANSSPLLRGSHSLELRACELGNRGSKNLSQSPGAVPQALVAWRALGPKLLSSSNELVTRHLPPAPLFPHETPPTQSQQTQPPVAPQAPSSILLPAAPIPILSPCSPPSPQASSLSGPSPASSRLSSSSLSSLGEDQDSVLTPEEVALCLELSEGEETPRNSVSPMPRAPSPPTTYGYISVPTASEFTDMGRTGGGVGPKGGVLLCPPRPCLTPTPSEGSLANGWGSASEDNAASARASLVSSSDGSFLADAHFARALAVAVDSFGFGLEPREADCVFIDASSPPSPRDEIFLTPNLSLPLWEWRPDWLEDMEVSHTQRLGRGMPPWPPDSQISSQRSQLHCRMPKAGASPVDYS
Kind of assay: flow cytometry, HEK293 cells transfected with pCI-FLAG-hROBO4-210, anti-mouse IgG FITC; control histogram IgG (Mouse IgG2a). The protocol:
HEK293 cells were inoculated at a concentration of 1.5×10⁶ cells/dish to a 60-mm dish (manufactured by Corning Inc.) and cultured overnight in a DMEM medium containing 10% FBS at 37° C. under 5% CO₂ conditions. […] On the next day, the expression vector-transfected cells were treated with TrypLE Express (manufactured by Life Technologies Corp.), washed with PBS containing 5% FBS, and then suspended in PBS containing 5% FBS. The obtained cell suspension was used in flow cytometry analysis.
Each cell suspension prepared in 4)-5-1 was centrifuged, and the supernatant was removed. Then, MAb1, a positive control Monoclonal ANTI-FLAG M2 antibody produced in mouse, or a negative control Mouse IgG2a was added at a concentration of 10 μg/mL to 2×10⁵ expression vector-transfected cells, and the resulting suspension was left standing at 4° C. for 1 hour. The cells were washed once with PBS containing 5% FBS. Then, Anti-Mouse IgG FITC conjugate diluted 1000-fold with PBS containing 5% FBS was added thereto, and the resulting suspension was left standing at 4° C. for 1 hour. […] Data was analyzed using Flowjo. The histogram of FITC fluorescence intensity was prepared. The antibody was determined to bind to a cell when the histogram of MAb1 was shifted to a stronger fluorescence intensity region compared with the histogram of the negative control Mouse IgG2a. […]

B1: anti-ROBO4 mouse monoclonal antibody MAb1 (antibody, mouse IgG1, V domains shown)
VH: EVQLVESGGGLVKPGGSLKLSCAASGFTFSTYAMSWVRQTPEKRLEWVATISNGGTYTYYPDSVKGRFTISRDNAENTLYLQMSSLRSEDTAMYFCARLIYYDYLDYWGHGTTLTVSS
VL: DAVMTQTPLSLPVSLGDQASISCRSSQSLENSNGNTYLNWYFQKPGQSPQLLIYRVSNRFSGVLDRFSGSGSGTDFTLKISRVEAEDFGVYFCLQVTHVPWTFGGGTKLEIKR
notes: Mouse IgG1 (gamma1), kappa light chain, purified from hybridoma supernatant; also called parent antibody MAb1
On to B1, for which the binding result was “no binding (tested: 10 µg/mL)”.

These data come from patent US20150098945A1 (Daiichi Sankyo, published 2015).
